We go through 5 molecules from patent US20250163162A1 (SYNTHEKINE, published 2025).

Usually Kd stands for the concentration at which binding is half-saturated. A lower Kd goes with higher affinity. One may read the koff as the first-order rate constant of dissociation. Low values mean slow dissociation, high ones fast dissociation. By kon is commonly meant a measure of how fast the partners come together. Read a high kon as fast association.

Assay [1] deals with T1, hIL2Rg-Fc (SinoBiological cat#10555) (human, UniProt P31785 23-254, limits assumed).
T1 construct: Bought Fc fusion (SinoBiological cat#10555); P31785 is printed for hCD132 in the background; also called human IL2Rg-Fc; not shown: Fc of the bought fusion protein
T1 sequence (looked up): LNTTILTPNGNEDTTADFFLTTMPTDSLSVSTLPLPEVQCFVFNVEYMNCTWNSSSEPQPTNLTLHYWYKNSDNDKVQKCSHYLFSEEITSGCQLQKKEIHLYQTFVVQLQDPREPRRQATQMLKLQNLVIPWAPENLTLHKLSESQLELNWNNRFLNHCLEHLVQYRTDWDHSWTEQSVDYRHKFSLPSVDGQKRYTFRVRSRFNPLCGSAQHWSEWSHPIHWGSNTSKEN
The experiment in a line: SPR (Biacore T200); ratio experimental/calculated Rmax.

Assay [2] deals with T2, cIL2Rg-Fc (lot#P210115SV5) (cynomolgus, UniProt A0A2K5VGJ6 23-262).
T2 construct: Named only by lot number; also called cynomolgus IL2Rg-Fc; not shown: Fc of the fusion protein
T2 sequence: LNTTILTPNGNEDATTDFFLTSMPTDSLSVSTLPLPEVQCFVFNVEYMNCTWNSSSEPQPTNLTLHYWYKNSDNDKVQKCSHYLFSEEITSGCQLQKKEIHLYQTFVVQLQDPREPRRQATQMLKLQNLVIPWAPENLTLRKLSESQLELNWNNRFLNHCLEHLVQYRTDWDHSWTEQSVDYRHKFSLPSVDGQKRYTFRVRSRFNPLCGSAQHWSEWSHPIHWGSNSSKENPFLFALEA
The assay is described as above.

In assay [3] the target is T1, hIL2Rg-Fc (SinoBiological cat#10555). Briefly: SPR (Biacore T200), Fc-fused ligand captured on chip, dual VHH as analyte, 1:1 Langmuir fit. As to the method: (§1) All experiments were conducted in 10 mM Hepes, 150 mM NaCl, 0.05% (v/v) Polysorbate 20 (PS20) and 3 mM EDTA (HBS-EP+ buffer) on a Biacore T200 instrument equipped with Protein A or CAP biotin chips (Cytiva). For experiments on Protein A chips, Fc-fused ligands were flowed at 5 μl/min for variable time ranging from 18 to 300 seconds, reaching the capture loads listed in the tables below. Following ligand capture, injections of a 2-fold dilution series of analyte typically comprising at least five concentrations between 1 μM and 1 nM were performed in either high performance or single cycle kinetics mode. Surface regeneration was achieved by flowing 10 mM glycine-HCl, pH 1.5 (60 seconds, […]). Buffer-subtracted sensograms were processed with Biacore T200 Evaluation Software and globally fit with a 1:1 Langmuir binding model (bulk shift set to zero) to extract kinetics and affinity constants (kₐ, kd, KD). RMAX<100 RU indicates surface density compatible with kinetics analysis. Experiments on CAP chips were performed as described above with an additional capture step of Biotin CAPture reagent (10 seconds, 40 uL/min) performed prior to capture of biotinylated ligands. Calculated Rmax were generated using the equation Rmax=Load (RU) x valency of ligand x (Molecular weight of analyte/Molecular weight of ligand. Surface activity was defined as the ratio experimental/calculated Rmax. The results of these experiments are provided in below for sample information and experimental results.
In general terms: In SPR one partner is held on a chip, and binding of the other changes the refractive index at the surface.

In assay [4] the target is T2, cIL2Rg-Fc (lot#P210115SV5). Described as above. As to the method: as §1

B1: DR441(DR236-DR231) (bispecific antibody)
chain: QVQLQESGGGSVQAGGSLRLSCAASRFTYSSYCMGWFRQAPGKEREGVASIDSDGSTSYTDSVKGRFTISKDNAKNTLYLQMNSLKPEDTAMYYCALDLMSTVVPGFCGFLLSAGMDYWGKGTQVTVSSGGGSQVQLQESGGGSVQAGGSLRLSCTASGFTFDDREMNWYRQAPGNECELVSTISSDGSTYYADSVKGRFTISQDNAKNTVYLQMDSVKPEDTAVYYCAADFMIAIQAPGAGCWGQGTQVTVSSASHHHHHH
notes: Anti-hIL10Ra/hIL2Rg dual VHH with ASH6 handle; also called F1
As for B1, in assay [1], the “Surface Activity” value is 4%. For the same molecule, in assay [2], the “Surface Activity” value was 1%. For the same molecule, in assay [3], the Kd worked out at 11.1 nM, the koff turned out to be 0.0053 s⁻¹ and the on-rate (kon) was determined as 470000 M⁻¹ s⁻¹. In assay [4], this molecule came in with an equilibrium dissociation constant (Kd) of 8.3 nM, a koff of 0.0028 s⁻¹ and a kon of 340000 M⁻¹ s⁻¹.

B2: DR471(DR241-DR231) (bispecific antibody)
chain: QVQLQESGGGSVQAGGSLRLSCAASGYSNCSYDMTWYRQAPGKEREFVSAIHSDGSTRYADSVKGRFFISQDNAKNTVYLQMNSLKPEDTAMYYCKTDPLHCRAHGGSWYSVRANYWGQGTQVTVSSGGGSQVQLQESGGGSVQAGGSLRLSCTASGFTFDDREMNWYRQAPGNECELVSTISSDGSTYYADSVKGRFTISQDNAKNTVYLQMDSVKPEDTAVYYCAADFMIAIQAPGAGCWGQGTQVTVSSASHHHHHH
notes: Anti-hIL10Ra/hIL2Rg dual VHH with ASH6 handle; also called G3
Take B2: the entries for the “Surface Activity” value in assay [1] and in assay [2] were 5% and 1%, respectively. The Kd in assay [3] was found to be 16.6 nM; in assay [4], 13.4 nM. The koff in assay [3] came out at 0.0057 s⁻¹; in assay [4] it was 0.0048 s⁻¹. The kon was 340000 M⁻¹ s⁻¹ in assay [3] and 360000 M⁻¹ s⁻¹ in assay [4].

B3: DR449(DR237-DR233) (bispecific antibody)
chain: QVQLQESGGGSVQAGGSLRLSCAASGYTYSMYCMGWFRQAPGKEREGVAQINSDGSTSYADSVKGRFTISKDNAKNTLYLQMNSLKPEDTAMYYCAADSRVYGGSWYERLCGPYTYEYNYWGQGTQVTVSSGGGSQVQLQESGGGSVQAGGSLRLSCTASGFTFDDSDMGWYRQAPGNECELVSTISSDGSTYYADSVKGRFTISQDNAKNTVYLQMNSLKPEDTAVYYCAAEPRGYYSNYGGRRECNYWGQGTQVTVSSASHHHHHH
notes: Anti-hIL10Ra/hIL2Rg dual VHH with ASH6 handle; also called F3
B3: the “Surface Activity” value in assay [1] is 2%. Moreover, in assay [2], the “Surface Activity” value was 1%. In assay [3], the equilibrium dissociation constant (Kd) was 30.4 nM, the koff worked out at 0.0065 s⁻¹ and the kon is 220000 M⁻¹ s⁻¹. In assay [4], the Kd is 22.6 nM, the koff stood at 0.0048 s⁻¹ and the kon came to 210000 M⁻¹ s⁻¹.

B4: DR442(DR236-DR232) (bispecific antibody)
chain: QVQLQESGGGSVQAGGSLRLSCAASRFTYSSYCMGWFRQAPGKEREGVASIDSDGSTSYTDSVKGRFTISKDNAKNTLYLQMNSLKPEDTAMYYCALDLMSTVVPGFCGFLLSAGMDYWGKGTQVTVSSGGGSQVQLQESGGGSVQAGGSLRLSCVASGYTSCMGWFRQAPGKEREAVATIYTRGRSIYYADSVKGRFTISQDNAKNTLYLQMNSLKPEDIAMYSCAAGGYSWSAGCEFNYWGQGTQVTVSSASHHHHHH
notes: Anti-hIL10Ra/hIL2Rg dual VHH with ASH6 handle; also called F7
With B4, in assay [1], the “Surface Activity” value is 5%. Besides, the “Surface Activity” value in assay [2] is 7%. Also, in assay [3], binding was characterised by a dissociation constant (Kd) of 21.5 nM, the koff came to 0.042 s⁻¹ and the kon is 2e+06 M⁻¹ s⁻¹. Besides, in assay [4], the Kd came to 41.3 nM, the koff is 0.0033 s⁻¹ and the kon was 79000 M⁻¹ s⁻¹.

B5: DR444(DR236-DR234) (bispecific antibody)
chain: QVQLQESGGGSVQAGGSLRLSCAASRFTYSSYCMGWFRQAPGKEREGVASIDSDGSTSYTDSVKGRFTISKDNAKNTLYLQMNSLKPEDTAMYYCALDLMSTVVPGFCGFLLSAGMDYWGKGTQVTVSSGGGSQVQLQESGGGSVQAGGSLRLSCVASGYTFSSYCMGWFRQAPGKEREGVAALGGGSTYYADSVKGRFTISQDNAKNTLYLQMNSLKPEDTAMYYCAAAWVACLEFGGSWYDLARYKHWGQGTQVTVSSASHHHHHH
notes: Anti-hIL10Ra/hIL2Rg dual VHH with ASH6 handle; also called E8
In the case of B5, the “Surface Activity” value in assay [1] is 5%. The “Surface Activity” value in assay [2] was 2%. In assay [3], the Kd was found to be 6.9 nM, the koff is 0.0026 s⁻¹ and the association rate constant (kon) worked out at 380000 M⁻¹ s⁻¹. In assay [4], this molecule gave a Kd of 5.3 nM, a koff of 0.00077 s⁻¹ and a kon of 150000 M⁻¹ s⁻¹.
